Data: patent publication US20200247894A1 (Regeneron, published 2020)

T1: human IL2Rγ (endogenously expressed on cells) (human, UniProt P31785 23-369)
T1 sequence (looked up): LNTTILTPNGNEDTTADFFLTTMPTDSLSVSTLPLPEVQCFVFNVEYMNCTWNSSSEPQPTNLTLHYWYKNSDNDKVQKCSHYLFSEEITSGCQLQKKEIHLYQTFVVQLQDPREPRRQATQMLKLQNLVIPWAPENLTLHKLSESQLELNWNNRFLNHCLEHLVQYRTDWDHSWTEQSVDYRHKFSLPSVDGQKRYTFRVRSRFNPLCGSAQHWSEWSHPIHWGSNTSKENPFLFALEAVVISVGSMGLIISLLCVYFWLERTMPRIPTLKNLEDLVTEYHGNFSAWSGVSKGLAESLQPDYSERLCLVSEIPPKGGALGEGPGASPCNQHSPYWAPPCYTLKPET

T2: D2 domain of human IL2Rγ extracellular domain expressed with a C-terminal myc-myc-hexahistidine tag (human)
T2 construct: also called human IL2Rγ domain 2
T2 chain: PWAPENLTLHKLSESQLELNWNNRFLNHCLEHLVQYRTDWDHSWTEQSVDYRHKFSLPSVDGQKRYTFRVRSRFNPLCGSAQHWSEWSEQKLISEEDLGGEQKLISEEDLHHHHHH

T3: D1 domain of human IL-2Rγ extracellular domain expressed with a C-terminal myc-myc-hexahistidine tag (human)
T3 construct: also called human IL2Rγ domain 1
T3 chain: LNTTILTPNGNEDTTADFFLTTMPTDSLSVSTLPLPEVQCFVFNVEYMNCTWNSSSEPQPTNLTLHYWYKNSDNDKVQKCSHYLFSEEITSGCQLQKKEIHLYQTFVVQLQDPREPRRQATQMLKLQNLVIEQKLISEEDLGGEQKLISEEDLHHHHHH


Key:
[1] = target: T1, human IL2Rγ (endogenously expressed on …); assay: cell-based or functional assay
[2] = target: T2, D2 domain of human IL2Rγ extracellular …; assay: SPR, mAb captured on anti-hFc, 37 C
Protocol: (§1) Equilibrium dissociation constants (KD values) for IL-2Rγ binding to purified anti-IL2Rγ monoclonal antibodies were determined using a Biacore 4000 instrument equipped with a real-time surface plasmon resonance biosensor. All binding studies were performed in 10 mM HEPES, 150 mM NaCl, 3 mM EDTA, and 0.05% v/v Surfactant Tween-20, pH 7.4 (HBS-ET) running buffer at 25° C. and 37° C. The Biacore sensor surface was first derivatized by amine coupling with a monoclonal mouse anti-human Fc antibody (GE, # BR-1008-39) to capture anti-IL2Rγ monoclonal antibodies.

[3] = target: T3, D1 domain of human IL-2Rγ extracellular …; assay: SPR, mAb captured on anti-hFc, 25 C
Protocol: as §1
(§2) The dissociation of monoclonal antibody bound IL2Rγ reagents were monitored for 8-10 minutes in HBS-ET running buffer. Kinetic association (kₐ) and dissociation (kd) rate constants were determined by fitting the real-time sensorgrams to a 1:1 binding model using Scrubber 2.0c curve fitting software. Binding dissociation equilibrium constants (KD) and dissociative half-lives (t_{1/2}) were calculated from the kinetic rate constants as: […]

[4] = target: T3, D1 domain of human IL-2Rγ extracellular …; assay: SPR, mAb captured on anti-hFc, 37 C
Protocol: as §1, §2

[5] = target: T2, D2 domain of human IL2Rγ extracellular …; assay: SPR, mAb captured on anti-hFc, 25 C
Protocol: as §1

Binder	Max Inhibition (%); IL-2 30 pM; NK92/hIL7R/STAT3-luc [1] [%]	100 nM Ag Bound [2] [RU]	100 nM Ag Bound [3] [RU]	100 nM Ag Bound [4] [RU]	100 nM Ag Bound [5] [RU]	IC50; IL-7 50 pM; NK92/hIL7R/STAT3-luc [1] [M]	Max Inhibition (%); IL-4 250 pM; Ramos.2G6.4C10/STAT3-luc [1] [%]	Max Inhibition (%); IL-7 50 pM; NK92/hIL7R/STAT3-luc [1] [%]	Kd [3] [nM]	koff [3] [s⁻¹]	kon [3] [M⁻¹ s⁻¹]	t½ [3] [min]	Kd [4] [nM]	koff [4] [s⁻¹]	kon [4] [M⁻¹ s⁻¹]	t½ [4] [min]	also measured
H4H12859P (antibody, human IgG4 S228P, kappa, V domains shown, human IgG4) VH: QVQLVQSGAEVKKPGASVRVSCKASGYTFTDYDIHWVRQAPGHGLEWMGWINPNSGGTNYAQKFQGRVTMTRDTSISTVYMDLSRLRSDDTAVYYCARADYSSSYYYYGMDVWGQGTTVTVSS VL: not shown	29	-1	0	0	-1												binding result [4]: no binding (tested: 100 nM)
H4H12863P (antibody, human IgG4 S228P, kappa, V domains shown, human IgG4) VH: QVQLVESGGGVVQPGRSLRLSCTASGFTFRSYDMYWVRQAPGKGLEWVSVITYDGNNKYYADSVKGRFTISRDNSKNTLFLQMSSLRPEDTAVYYCAKRGLIWVGESFDYWGQGTLVTVSS VL: DIQMTQSPSTLSASVGDRVTITCRASQSINSWLAWYQQKPGKAPNLLIYKASSLESGVPSRFSGSGSGTEFTLTISSLQPDDFATYYCQQYKSYSWTFGQGTKVEIKR	48	-1	55	39	0	1.5e-09	70	42	4.74	0.000538	114000	21	8.69	0.00221	254000	5	IC50; IL-2 30 pM; NK92/hIL7R/STAT3-luc [1]: 4.3e-10 M; IC50; IL-4 250 pM; Ramos.2G6.4C10/STAT3-luc [1]: 3.6e-10 M; IC50; IL-9 20 pM; NK92/hIL7R/STAT3-luc [1]: 4.7e-10 M; IC50; IL-21 5 pM; NK92/hIL7R/STAT3-luc [1]: > 1e-07 M; Max Inhibition (%); IL-9 20 pM; NK92/hIL7R/STAT3-luc [1]: 38%; Max Inhibition (%); IL-15 60 pM; NK92/hIL7R/STAT3-luc [1]: 30%; Max Inhibition (%); IL-21 5 pM; NK92/hIL7R/STAT3-luc [1]: 28%
H4H12871P (antibody, human IgG4 S228P, kappa, V domains shown, human IgG4; also called REGN9434) VH: QVQLQESGPGLVKPSQTLSLTCTVSGGSITSGGYYWSWIRQYPGQGLEWIGYIYYSGKTYYNPSFTSRITISVDTSKKQFSLKMSSVTAADTAVYYCARAGFTSSNGWFDPWGQGTLVTVSS VL: DIQMTQSPSSLSASVGDRVTITCRASQNIRSYLNWYQQKPGKAPKLLIYSASSLQSGVPSRFSGSGSGTDFTLTISSLQPEDFPTYYCQQTYSSPWTFGPGTKVEIKR		-1	47	33	0	8.2e-10	31	36	11.8	0.00111	94000	10	21.2	0.0036	170000	3.2	
